These results are taken from PMC8809517, “Cofactor-independent RNA editing by a synthetic S-type PPR protein”.

What is called Kd is the concentration at which binding is half-saturated. The low end stands for a tighter complex, the high end for a looser complex.

Assay in all cases: high-throughput RNA pulldown from lysate on Ni-NTA beads; HRP: 50 mM Tris pH 8, 150 mM NaCl, 1 mM beta-mercaptoethanol, 50 ug/ml BSA, 3 ug/ml yeast RNA, 0.5% heparin; ITC and FP: Tris pH 8, 200 mM KCl, 5% glycerol; MST: 50 mM Tris pH 8, 200 mM NaCl, 1 mM DTT, BSA, heparin, 0.05% Tween 20
Holding throughout (conditions): tags: N-terminal His-eGFP

For series [1], the target named is T1, GFP-9S library array, motif 4 ND N98I;D124P (synthetic construct, N98I;D124P).
T1 chain: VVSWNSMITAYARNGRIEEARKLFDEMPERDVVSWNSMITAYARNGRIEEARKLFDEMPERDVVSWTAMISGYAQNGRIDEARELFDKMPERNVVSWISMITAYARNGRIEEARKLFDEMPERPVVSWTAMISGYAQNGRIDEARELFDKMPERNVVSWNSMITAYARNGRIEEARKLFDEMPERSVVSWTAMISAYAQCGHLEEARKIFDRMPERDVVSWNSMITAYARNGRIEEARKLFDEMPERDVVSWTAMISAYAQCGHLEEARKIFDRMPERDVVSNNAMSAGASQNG

Series [2] addresses T2, GFP-9S library array, motif 4 ND N98C;D124P (synthetic construct, N98C;D124P).
T2 chain: T1 chain with I98C

For series [3], the target named is T3, GFP-9S library array, motif 4 ND N98K;D124L (synthetic construct, N98K;D124L).
T3 chain: T1 chain with I98K, P124L

Series [4] has as its target T4, GFP-9S library array, motif 4 ND N98G;D124I (synthetic construct, N98G;D124I).
T4 chain: T1 chain with I98G, P124I

Series [5] concerns the target T5, GFP-9S library array, motif 4 ND N98F;D124L (synthetic construct, N98F;D124L).
T5 chain: T1 chain with I98F, P124L

Substitutions are numbered along the chain they refer to.

As to AUUAUACGUGA (ssRNA) [IR-rpoA-U], the equilibrium dissociation constant (Kd) in series [1] (label: 5' IRDye 800CW) worked out at 269 nM; in series [2] (label: 5' IRDye 800CW) it was 351 nM; in series [3] (label: 5' IRDye 800CW), 174 nM; in series [4] (label: 5' IRDye 800CW), 205 nM; in series [5] (label: 5' IRDye 800CW) it was 166 nM.

As for AUUAAACGUGA (ssRNA) [IR-rpoA-A], the dissociation constant (Kd) in series [1] (label: 5' IRDye 800CW) was determined as 266 nM; in series [2] (label: 5' IRDye 800CW), 263 nM; in series [3] (label: 5' IRDye 800CW), 151 nM; in series [4] (label: 5' IRDye 800CW) it was 315 nM; in series [5] (label: 5' IRDye 800CW) it was 232 nM.

On to AUUACACGUGA (ssRNA) [Cy5-rpoA], for which the Kd in series [1] (label: 5' Cy5) amounted to 132 nM; in series [2] (label: 5' Cy5), 272 nM; in series [3] (label: 5' Cy5), 83.5 nM; in series [4] (label: 5' Cy5), 105 nM; in series [5] (label: 5' Cy5) it was 76.3 nM.

For the molecule AUUAGACGUGA (ssRNA) [Cy5-rpoA-G], the Kd is 112 nM in series [1] (label: 5' Cy5); 321 nM in series [2] (label: 5' Cy5); 73.5 nM in series [3] (label: 5' Cy5); 113 nM in series [4] (label: 5' Cy5); 90.2 nM in series [5] (label: 5' Cy5).
